Assay results: the supplement of paper PMC9170038

Legend:
MS2 coat protein [1] = test: apparent KD of MS2 coat protein, switch ON state; designed switch direction (-1 OFF switch, 1 ON switch): -1; higher = weaker reporter binding; settings: FMN input: 0 or 200 uM; Eterna round: R93 (includes R88 designs)
Outline: (§1)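 Apparent KD per design is the median of normalised cluster binding-curve fits. Designed RNA switches transcribed on-chip from Illumina sequencing clusters were titrated with SNAP-549-labelled MS2 coat protein in twofold steps from 0.7 or 1.5 nM to 3 µM, with 0.8–1.5 h down to 10–20 min per step. Buffer: 100 mM Tris-HCl pH 7.5, 80 mM KCl, 4 mM MgCl2, without or with constant ligand.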

MS2 coat protein [2] = test: apparent KD of MS2 coat protein, switch OFF state (with FMN for OFF switches, without FMN for ON switches); designed switch direction (-1 OFF switch, 1 ON switch): -1; higher = weaker reporter binding; settings: FMN input: 0 or 200 uM; Eterna round: R93 (includes R88 designs)
Outline: as §1

Sequence	apparent KD of MS2 coat protein (MS2 coat protein [1]) [nM]	apparent KD of MS2 coat protein (MS2 coat protein [2]) [nM]
AAAAAGAGAGGAUAUACAUGAGGAUCACCCAUGUGAAAGACGAAAAAAAGUCAAAAAAGUAGAAGGCUCAAAAA [65%, Moding Exclusion3-cac2, 15]	23.8	25.4
AAGAAGCAAGGAUAUACAUGAGGAUCACCCAUGUAAAAGAAAGAAAGGGAAAAGAAAAGUAGAAGGUGCAAGAA [Titkheperure Pasebakhenniut II]	45.2	57
AAAAAGUCAGGAUAUGCUUAUAAUAAGAAAAUUAGAGAUAUGCAGAAGGGACAUGAGGAUCACCCAUGUAAAAA [Ex 4.1]	53.2	36.4
AAAGGACGAGGAUAUACAUGAGGAUCACCCAUGUGUAAAACGUAAUAAAAGAACUUAUGUAGAAGGCGUCCAAA [Mat - Exclusion 3 - Eli mod - D96]	64.7	214
AACAGUACAGGAUAUACAUGAGGAUCACCCAUGUCACACAAAUAAAACAAAAAUAAAAGUAGAAGGGUACUGGA [Ruby 40]	24.9	25.9
AAAAAUGCAGGAUAUACGAACAUGUCAAAAGACGUGAAGGGACAUGAGGAUCACCCAUGUAGAAGGGUAAAGAA [JL Neck Breaker 14]	248	46
GAAAAGUGAGGAUAUUCGGAUAGGAAAACGAAAACCUAUCCGAAGAAGGCACAUGAGGAUCACCCAUGUAAAAG [Mat - Exaclusion 4 - Eli mod - D36]	41.2	51.9
AAAAAGUGAGGAUAUACAUGAGGAUCACCCAUGUAAAAGGUCGCGGGAGCGGAGGACGGUAGAAGGCGCAAAAA [Excls3-VIIi]	25.3	28.9
CAAAACAGAGGAUAUACAUGAGGAUCACCCAUGUAAAAAUGUAGAAGGCUGAAACAAACAAGAAGGAAACAAAA [Meechl Ex3 R2 m3]	23.7	30.1
AAGAAGUGAGGAUAUACAUGAGGAUCACCCAUGUAAAAGAAAGAAGGGAAAGAGAAAAGUAGAAGGCGCAAGAA [Neferibre Psamtik II]	38.9	42.1
AAAAUGUCAGGAUAUGCGAAGGCGUCUGACGGACGAGGAUUGCAGAAGGGACAUGAGGAUCACCCAUGUAAAAA [Mod Hyphema's Change in Energy -added G at 31]	79.5	133
AUACGCUGAGGAUAUACCGAAACAACAUCCUCGUGUAUAAUACAUGAGGAUCACCCAUGUAGAAGGCAGUAAAA [Usmaan]	46.2	85.5
AAACCACAUGAGGAUCACCCAUGUCAGGAUAUGCACGAAAAUAAAUAAAAAUAAAAGUGCAGAAGGGACUAAAA [66%, Wbt, 14]	31.9	45
UAGAACCUAGGAUAUACUUGGAAAAAUAAUGCAAAGAUAUAACAUGAGGAUCACCCAUGUAGAAGGAGGAGUAA [JR_Exc002_Sub020]	48.5	35.9
AAAAAGUCAGGAUAUACAAAAGUGCGAAAGCACAAAAGGAAACAUGAGGAUCACCCAUGUAGAAGGGACAAGAA [Married to this design]	42.3	24.2
GAAAAGUGAGGAUAUACUUUGGGAAAAGAAAAGAUGAUGUUACAUGAGGAUCACCCAUGUAGAAGGCACAAAAA [Mat - Exclusion 2 - Mod - D155]	25.2	38.1
GAAAAGUCAGGAUAUGCGAAGGCGUCUGAUAGACGAGGCUAGCAGAAGGGACAUGAGGAUCACCCAUGUGGAAG [Mat - Exclusion 4 - Eli mod - D90]	76.5	157
CCUAUGUCAGGAUAUCAGUAGUAAAAAAAAAAAAUUACUACUGAGAAGGGACAUGAGGAUCACCCAUGUCCCUU [EX4 309: Super Stable 9]	15.3	14.3
AGAUAGUCAGGAUAUACGAACAAGAAAAAAGACGAGAACGGACAUGAGGAUCACCCAUGUAGAAGGGACUAGCA [Diamond 10]	35.6	30.2
AAAAAACAUGAGGAUCACCCAUGUCAGGAUAUCCGAAAAAAAAAAAAAAAAAAACCUUGGAGAAGGGACAUUCC [Chica Displaced 6 - Jieux - Exclusion 1]	37.2	34.4
AAAAACGGAGGAUAUACAUGAGGAUCACCCAUGUAAAAAAAAAAAAAGGGAAAAAAAAGUAGAAGGCCGAAAAA [Sekhemrekhutawy Pantjeny]	39.1	71.2
GGAAAACAUGAGGAUCACCCAUGUGAGGAUAUUGAAACAAACAAAACAAACAAACAAACAAGAAGGCACAGGAA [Exclusion one redone]	20.7	20.1

Sequence	apparent KD of MS2 coat protein (MS2 coat protein [1]) [nM]	apparent KD of MS2 coat protein (MS2 coat protein [2]) [nM]
AAAACGGCAGGAUAUACAAUUGAGAACUAGAUCGAAAAAAAACAUGAGGAUCACCCAUGUAGAAGGGCCAAAAA [Ex2 Malc#9]	34.7	55.3
AGCUAGUCAGGAUAUACGAGAAAGAAAGAAGAAGUGAAGGGACAUGAGGAUCACCCAUGUAGAAGGGACUAGCA [Diamond 27]	51.9	160
GAAAAACAUGAGGAUCACCCAUGUAAGGAUAUGCUAAAAAACACGGAAAACGUGAAUAGCAGAAGGUACAAAAA [Mat - Exclusion 1 - Eli mod - D86]	20.6	23.6
ACUAAACGAGGAUAUACUGACAAACCUCAAACAUACAUCAAACAUGAGGAUCACCCAUGUAGAAGGCGUAAACU [JR_Exc002_Sub401]	37.6	19.6
AGUCUGAGAGGAUAUACAUAGGAAAAAAAAGUCAGAUCCCUACAUGAGGAUCACCCAUGUAGAAGGCUCUGACA [Ex2 Design 148: Sub-opt 12]	13.9	12.6
AACUAGUGAGGAUAUACAAGAAUAUAAACAAAAAUGAAGGGACAUGAGGAUCACCCAUGUAGAAGGCACUAACA [Diamond 71]	34	106
GAGGCUGAAGGAUAUACAAGGGCCUCACCGCCAAGGCGGAAACAUGAGGAUCACCCAUGUAGAAGGUCAAUAAA [Usrisore]	140	103
AAAUAGUUAGGAUAUACAUGAGGAUCACCCAUGUGGACUUAUGGCGAAUAAUUUAGUGGUAGAAGGGACUAAAA [EX2 Malc#28]	62.9	53.8
AAAAAGAUAGGAUAUACGAACAUGUCGAAAGACGUGAAGGGACAUGAGGAUCACCCAUGUAGAAGGGUUAAAAA [Mat - Exclusion 2 - JL mod - D88]	149	50
AAAACUGGAGGAUAUACGAACAUGUCGAAAGACGUGAAGGGACAUGAGGAUCACCCAUGUAGAAGGCUAGAAAA [Mat - Exclusion 2 - JL mod - D72]	42.5	58.4
CUCUUGUGAGGAUAUCCAUGAAAUGAAGUGAAAGAAAAGAAGGAGAAGGCACAUGAGGAUCACCCAUGUUAGAA [EteRNA is fun!]	49.6	24.3
ACAGUUACAGGAUAUACAUGGAAAAAUAAAAAUAAAAAACUACAUGAGGAUCACCCAUGUAGAAGGGUAACUGA [Ex2 Design 197: Random 12F]	42.9	86.9
AAGGGACAUGAGGAUCACCCAUGUAAGGAUAUGCUAUGGAAAAUAAAAAUAAAACAUAGCAGAAGGUACAAAAA [Denovo 15]	124	135
AAACCACAUGAGGAUCACCCAUGUCAGGAUAUGCUAUGGAAAAUAAAAAUAAAACAUAGCAGAAGGGACAAAAA [Denovo 6]	37.2	66
AAAAAGCAAGGAUAUACAUGAGGAUCACCCAUGUGAAAAAAAACAAUAAGAAGAACAAGUAGAAGGUGCAAAAA [Mod of Ex3 Tesla 1 - Jieux - Exclusion 3]	19.5	28.2
CUCUUGUCAGGAUAUCUAAGAAAAGAAGAGAAAGAAAAGAAAGAGAAGGGACAUGAGGAUCACCCAUGUAAGAA [EteRNA is fun!]	59.3	32.4
AAACCACAUGAGGAUCACCCAUGUCAGGAUAUGAACGAAAUAAAAUAAAAAUAAAAGUUCAGAAGGGACAAAAA [Mat - Exclusion 1 - Eli mod - D16]	37.4	48.7
AACAGUACAGGAUAUACAUGAGGAUCACCCAUGUAGAGAGAAUAAAACAAAAAUAAAUGUAGAAGGGUACUGGA [Moding Maslow revisited (73) 23]	25.6	26.1
UUAAAACAUGAGGAUCACCCAUGUGAGGAUAUGCAAUACUAAUAUUAAAAUAAUUAUAGCAGAAGGCACAUAGU [JR_EXc001_Sub802]	28.4	60.4
AGCUAGUCAGGAUAUACGAACAGGUCAAAAGACGUGAAGGGACAUGAGGAUCACCCAUGUAGAAGGGACUAGCA [Mat - Exclusion 2 - JL mod - D23]	39.6	116
AAGAGGCUAGGAUAUACACAUCUGAUGACUCAACCUAAAACACAUGAGGAUCACCCAUGUAGAAGGAGCGAAAG [Qucequor]	20.2	17
AGAAAGUUAGGAUAUACAGAUAAAAAAACGAAAAAAAAUCUGUAGAAGGAACAUGAGGAUCACCCAUGUAAAGA [Mat - Exclusion 4 - Mayanna - D105]	28.7	23.2
